Here are results for three molecules from PMC8418782 (Molecular cell, 2021).

Test [1] addresses T1, human Hsp90α (human, UniProt P07900 1-732). In words: SEC-MALS. On the technique in general: SEC sorts molecules by how far they enter the pores of the column.
The target in test [2] is T1, human Hsp90α. In words: SEC-MALS. The source holds these as a separate data set.

B1: FKBP51 N402K (natural protein, human, UniProt Q13451 1-457, looked up)
chain: MTTDEGAKNNEESPTATVAEQGEDITSKKDRGVLKIVKRVGNGEETPMIGDKVYVHYKGKLSNGKKFDSSHDRNEPFVFSLGKGQVIKAWDIGVATMKKGEICHLLCKPEYAYGSAGSLPKIPSNATLFFEIELLDFKGEDLFEDGGIIRRTKRKGEGYSNPNEGATVEIHLEGRCGGRMFDCRDVAFTVGEGEDHDIPIGIDKALEKMQREEQCILYLGPRYGFGEAGKPKFGIEPNAELIYEVTLKSFEKAKESWEMDTKEKLEQAAIVKEKGTVYFKGGKYMQAVIQYGKIVSWLEMEYGLSEKESKASESFLLAAFLNLAMCYLKLREYTKAVECCDKALGLDSANEKGLYRRGEAQLLMNEFESAKGDFEKVLEVNPQNKAARLQISMCQKKAKEHKERDRRIYANMFKKFAEQDAKEEANKAMGKKTSEGVTNEKGTDSQAMEEEKPEGHV
In the case of B1, in the test with human Hsp90α [1], the binding result is on record as “binds”.

B2: FKBP51 ΔH7e (Δ401–457) (domain or fragment, human, UniProt Q13451 1-400, looked up)
chain: MTTDEGAKNNEESPTATVAEQGEDITSKKDRGVLKIVKRVGNGEETPMIGDKVYVHYKGKLSNGKKFDSSHDRNEPFVFSLGKGQVIKAWDIGVATMKKGEICHLLCKPEYAYGSAGSLPKIPSNATLFFEIELLDFKGEDLFEDGGIIRRTKRKGEGYSNPNEGATVEIHLEGRCGGRMFDCRDVAFTVGEGEDHDIPIGIDKALEKMQREEQCILYLGPRYGFGEAGKPKFGIEPNAELIYEVTLKSFEKAKESWEMDTKEKLEQAAIVKEKGTVYFKGGKYMQAVIQYGKIVSWLEMEYGLSEKESKASESFLLAAFLNLAMCYLKLREYTKAVECCDKALGLDSANEKGLYRRGEAQLLMNEFESAKGDFEKVLEVNPQNKAARLQISMCQKKAKE
Turning to B2, in the test with human Hsp90α [1], the binding result was “binds”.

B3: human p23 (natural protein)
chain: MQPASAKWYDRRDYVFIEFCVEDSKDVNVNFEKSKLTFSCLGGSDNFKHLNEIDLFHCIDPNDSKHKRTDRSILCCLRKGESGQSWPRLTKERAKLNWLSVDFNNWKDWEDDSDEDMSNFDRFSEMMNNMGGDEDVDLPEVDGADDDSQDSDDEKMPDLE
Usually stoichiometry N stands for a count of units in the complex or per binding partner. As to B3, the “stoichiometry N” value in the test with human Hsp90α [2] was ~0.5 p23 per Hsp90 chain (Hsp90:FKBP51:p23 2:1:1).
